# Laboratory results taken from the RNAGym collection of RNA variant scans (doi:10.1073/pnas.2313332121).
# This sample holds only a part of the variants without activity.
# B1: TPR 5TU (parent)
# chain: GGAUCUUCUCGAUCUAACAAAAAAGACAAAUCUGCCACAAAGCUUGAGAGCAUCUUCGGAUGCAGAGGCGGCAGCCUUCGGUGGCGCGAUAGCGCCAACGUUCUCAACUAUGACACGCAAAACGCGUGCUCCGUUGAAUGGAGUUUAUCAUG
# Variants of: B1
# Test: polymerase ribozyme fitness, log enrichment relative to wild type (log ratio); higher = more active; in vitro selection for triplet polymerase activity
# In short: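 Each subunit of a heterodimeric triplet polymerase ribozyme was mutagenized into a library by PCR, transcribed, and subjected to one round of in vitro selection, run in triplicate. Libraries were annealed with a biotinylated primer, the partner subunit and triplets, incubated frozen at −7 °C, and extended constructs were gel-excised, captured on streptavidin beads and recovered by RT-PCR. Input and output libraries were sequenced on Illumina, keeping genotypes with ≥10 input reads and ≥1 read per output. Fitness is log base 2 of genotype enrichment divided by wild-type enrichment, from inverse-variance-weighted replicate averages.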
row,Variant,polymerase ribozyme fitness (log ratio)
1,GGAUCUUCUCGAUCUAACAAAAAAGACAAAUCUGCCACAAAGCUUGAGAGCAACAUCGGAUGCAGAGGCGGCAGCCUUCGGUGGCGCGAUAGCGACAGCGUUCUCAACUAUGACACGCAAAAUGCGUGCUCCGUUGAAUGGACUUUAUCAUG [U53A U55A C95A A98G C123U G143C],-3.34
2,GGAUCUUCUCGAUCUAACAAAAAAGACAAAUCUGCCACAAAGCUUGAGAGCAACUUCGGAUGCAGAGGCGGCAGCCUUCGGUGGCGCGAUAGCCCCAACGUUCUAAACUAUGACACGUAAAACGCGUGCUCCGUUGAAUGGAGUUUAUCAUG [U53A G94C C105A C118U],≤ -4.2
3,GGAUCUUCUCGAUCUAACAAAAAAGACAAAUCUGCCACAAAGCUUGAGAGCAACUUCGGAUGCAGAGGCGGCAGCCUUCGGUAGCGCGAUAGCGCCAACGUUCUCAACUAUGACACGCAAAACGCGUGCUCCGUUGAAUGGAGUUUAUCAUG [U53A G83A],-1.64
4,GGAUCUUCUCGAUCUAACAAAAAAGACAAAUCUGCCACAAAGCUUGAGAGCAACUUCGGAUGCAGAGGCGGCAACCAUCGGUGGCGCGAUAGCGCUAACGUUCUCAACUAUGACACGCAAAACGCCUGCUCCGUUGAAUGGAGUUUAUCAUG [U53A G74A U77A C96U G126C],≤ -4.2
5,GGAUCUUCUCGAUCUAACAAAAAAGACAAAUCUGCCACAAAGCUUGAGAGCAACUUCGAAUGCAGAGGCGGCAGCCUUCGGUGGAGCAAUAGCGCCAACGUUCUCAACUAUGACACGCAAAACGCGUGCUCCGUUGAAUGGAGUUUAUCAAG [U53A G59A C85A G88A U151A],≤ -4.2
6,GGAUCUUCUCGAUCUAACAAAAAAGACAAAUCUGCCACAAAGCUUGAGAGCAACUUCGGAUCCAGAGGCGGCAGCCUUCGGUGACGCGAUAGCGCCAACGUUCUCAACUAUGACACGCAAAACGCGUGCUCCGUUAAAUGGAGUUUAUCAUG [U53A G62C G84A G136A],-3.58
7,GGAUCUUCUCGAUCUAACAAAAAAGACAAAUCUGCCACAAAGCUUGAGAGCAACUUCCGAUGCAGCGGCGGCAGCCUUCGGUGACGCGAUGGCGCCAACGUGCUCAACUAUGACACGCUAAACGCGUGCUCAGUUGAAUGGAGUUUAUCAUG [U53A G58C A66C G84A A91G U102G A119U C132A],≤ -4.2
8,GGAUCUUCUCGAUCUAACAAAAAAGACAAAUCUGCCACAAAGCUUGAGAGCAACUUCGGAUGCAGAGGCGGCAGCCUUCGGUAGCGCGAUAGCGCCAACGUUUUCAACUAUGACACGCAAAACGCGUGCUCUGUUGAAUGGAGUUUAUCAUG [U53A G83A C103U C132U],-3.25
9,GGAUCUUCUCGAUCUAACAAAAAAGACAAAUCUGCCACAAAGCUUGAGAGCAACUUCGGAUGCAGAGGCGGCAGCCUUCGGUGGCGCGAUAGCGCCAACGUUCUCAACUAUGACACGCAAAACGCGUCCUCCGUUGCAUGGAGUUUAGGAUG [U53A G128C A137C U148G C149G],≤ -4.2
10,GGAUCUUCUCGAUCUAACAAAAAAGACAAAUCUGCCACAAAGCUUGAGAGCAACAUCGGAUGCAGAGGCGGCAGCCUUCGGUGGCGCGAUAGCGCAAACGUUCUCAACUAUGACACGCAAAACGCGCGCUCCGUUGAUUGGAGUUUAUCAUG [U53A U55A C96A U127C A138U],≤ -4.2
11,GGAUCUUCUCGAUCUAACAAAAAAGACAAAUCUGCCACAAAGCUUGAGAGCAACUUCGGAUGCAGAGGCGGCAGCCUUCGGUGGCGCGAUAGCGCCAACGUUCUCAACUAUGACACGCAAAACGCGUGCUCCGUUUAAUGGAGGUUAUCAUG [U53A G136U U144G],-1.85
12,GGAUCUUCUCGAUCUAACAAAAAAGACAAAUCUGCCACAAAGCUUGAGAGCAACUUCGGAUGCAGAGGCGGCAGCCUUCGGUGGCGCGAUACCGCCAACGUCCUCAACUAUGACACGCAAAACGCGUGCUCCGUUGAAUGGAGUUUAUCAUG [U53A G92C U102C],-3.58
13,GGAUCUUCUCGAUCUAACAAAAAAGACAAAUCUGCCACAAAGCUUGAGAGCAACUUCGGAUGCAGAGGCGGCAGCCUUCGAUGGCGCGAUAGCGCCAAUGUUCUCAACUAUGACACGCAAAACGCGUGCUCCGUUGAAUGGAGUUUAUCAUG [U53A G81A C99U],-2.36
14,GGAUCUUCUCGAUCUAACAAAAAAGACAAAUCUGCCACAAAGCUUGAGAGCAACUUCGGAUGCAGAGGCGCCAGCCUUCGGUGGCGCAAUAGCGCCAACGUUCUCAACUAUGACACGCAAAACGCGUGCUCCGUUGAAUGGAGUUUAUCAUG [U53A G71C G88A],≤ -4.2
15,GGAUCUUCUCGAUCUAACAAAAAAGACAAAUCUGCCACAAAGCUUGAGAGCAACUUCGGAUGCAGAGGCGGCAGCCUUCGGUGGCACGAUCGCGCCAACGUUCUCAACUAUGACACGCAAAACGCGUCCUCCGUUGAAUGGAGUUUAUCAUG [U53A G86A A91C G128C],≤ -4.2
16,GGAUCUUCUCGAUCUAACAAAAAAGACAAAUCUGCCACAAAGCUUGAGAGCAACUUCGGAUGCAGAGGCGGCAGCCUUCGGUGGCGCGAUAGCGCCAACGUUCUCAACUAUGACACGCAAAACGCUUGCUCCGUUGAAUGGAGUUUAUCAUG [U53A G126U],0.134
17,GGAUCUUCUCGAUCUAACAAAAAAGACAAAUCUGCCACAAAGCUUGAGAGCAACUUCGGAUGCAGAGGCGGCAGCCUUCGGUGGCGCGAUAGCGCCAACGUUCUCAACUAUGACACGCAAAACGCAUGCUCCGUUGAAUGGAGUUUAUCAUG [U53A G126A],-0.879
18,GGAUCUUCUCGAUCUAACAAAAAAGACAAAUCUGCCACAAAGCUUGAGAGCAACUUCGCGUGCAGAGGCGGCAGCCUUCGGUGACGCGAUAGCGCCAACGUUCUCAACUAUGACACGCAAAACGCGUGCUCCGUUGAAUGGAGUUUAUCAUG [U53A G59C A60G G84A],-1.76
19,GGAUCUUCUCGAUCUAACAAAAAAGACAAAUCUGCCACAAAGCUUGAGAGCAACUUCGGAUGCAGAGGCGGCAGCCUUCGGUGUCGCGAUAGCGCCAACGUUCUCAACUAUGACACGCAAAACGCGUGCUCCGUUGAAUGGAGUUUAUCAUG [U53A G84U],-1.26

row,Variant,polymerase ribozyme fitness (log ratio)
1,GGAUCUUCUCGAUCUAACAAAAAAGACAAAUCUGCCACAAAGCUUGAGAGCAACUUCGGAUGCAGAGGCGGCAGCCUUCGGUGACGCGAUAGCGCCAACGUUCUCAACUAUGACACGCAAAACGCGUGCUCCGUUGAAUGGAGUUUAUCAUG [U53A G84A],-2.38
2,GGAUCUUCUCGAUCUAACAAAAAAGACAAAUCUGCCACAAAGCUUGAGAGCAACUUCGAAUGCAGAGGCGGCAGCCUUCGGUGGGGCGAUAGCGCCAACGUUCUCAACUAUGACACGCAAAACGCGUGCUCCGUUGAAUGGAGUUUAUUAUG [U53A G59A C85G C149U],-3.31
3,GGAUCUUCUCGAUCUAACAAAAAAGACAAAUCUGCCACAAAGCUUGAGAGCAACUUCGGAUGCAGAGGCGGCAGCCUUCGGUUGCGCGAUAGCGCCAACGUUCUCAACUAUGACACGCAAAACGCGUGCUCCGUUGAAUGGAGUUUCUCAUG [U53A G83U A147C],-1.91
4,GGAUCUUCUCGAUCUAACAAAAAAGACAAAUCUGCCACAAAGCUUGAGAGCAACUUCGGAUGCAGAGGCGGCAGCCUUCGGUGGCGCGAUAGCGCCAACGUUCUCAACUAUGACACGCAAAACGCGUGCUCUGUUGAAUGGAGUUUAUCAUG [U53A C132U],-1.73
5,GGAUCUUCUCGAUCUAACAAAAAAGACAAAUCUGCCACAAAGCUUGAGAGCAACUUCGGAUGCAGAGGCGGCAGCCUUCGGUGGCGCGAUAGCGCCAACGUUCUCAACUAUGACACGCAAAACGCGUGCUCCGUUAAAUGGAGUUUAUCAUG [U53A G136A],-0.321
6,GGAUCUUCUCGAUCUAACAAAAAAGACAAAUCUGCCACAAAGCUUGAGAGCAACUUCGGAUGCAGAGGCGACAGGUUUCGGUGGCACGAUAGCGCCAACGUUCUCAUUUAUGACACGCAAAACGCGUGCUCCGUUGAAUGGAGUUUAUCAUG [U53A G71A C75G C76U G86A A107U C108U],≤ -4.2
7,GGAUCUUCUCGAUCUAACAAAAAAGACAAAUCUGCCACAAAGCUUGAGAGCAACUUCGGAUGCAGAGGCGGCAGCCUUCGGUGGCGCGAUAGCCCCAACGUUCUCAACUAUGACACGCAAAACGCGUGCUCCGUUGAAUGGAGUUUAUCAUG [U53A G94C],-1.3
8,GGAUCUUCUCGAUCUAACAAAAAAGACAAAUCUGCCACAAAGCUUGAGAGCAACAUCGGAUGCAGAGGCGGCAGCCUUCGGUGGCGCGAUAGCGCCAACGUUCUCAACUAUGACACGCAAAACGCGUGCUCCGUUGAAUGGAGUUUAUCAUG [U53A U55A],-2.2
9,GGAUCUUCUCGAUCUAACAAAAAAGACAAAUCUGCCACAAAGCUUGAGAGCAACUUCGGAUGCAGAGGCGGCAGCCUUCGGUGGCGCGAUAGCGCCAACGUUCUCAACUAUGACACGCAAAACGCGUGCUACGUUGAAUGGAGUUUAUCAUG [U53A C131A],-3.17
10,GGAUCUUCUCGAUCUAACAAAAAAGACAAAUCUGCCACAAAGCUUGAGAGCAACUUCAGAUGCAGAGGCGGCAGCCUUCGGUGGCGCGAUAGUGCCAACGUUCUCAACUAUGACAUGCAAAACGCGUGCUCCGUUGAAUGGAGUUUAUCAUG [U53A G58A C93U C116U],-0.438
11,GGAUCUUCUCGAUCUAACAAAAAAGACAAAUCUGCCACAAAGCUUGAGAGCAACUUCGGAUGCAGAGGCGGCAGCCUUCGGUGGCGCGAUAGCGCCAACGUUCUCAACUAUGACACGCAAAACGCGUGCUCCGUUGAAUGGAGUUUAUCAUU [U53A G152U],-3.33
12,GGAUCUUCUCGAUCUAACAAAAAAGACAAAUCUGCCACAAAGCUUGAGAGCAACUUCGGAUGCAGAGGCGGCAGCCUUCCGUGGCGCGAUAGCGCCAACGUUCUCAACUAUGACACGCAAAACGCGUGCUCCGUUGAAUGGAGUUUAUCAUG [U53A G80C],≤ -4.2
13,GGAUCUUCUCGAUCUAACAAAAAAGACAAAUCUGCCACAAAGCUUGAGAGCAACUUCGGAUGCAGAGGCGGCAGCCUUCGGUGGCGCGAUAGCGCCAACGUUCUCAACUAUGACACGCAAAACGCGUGCUCCGUUGAAUGGAGUUUAUUAUG [U53A C149U],-1.57
14,GGAUCUUCUCGAUCUAACAAAAAAGACAAAUCUGCCACAAAGCUUGAGAGCAACUUCGGAUGCAGAGGCGGCAGCCUUCGGUGGCGCUAUAGCGCCAACGUUCUCAACUAUGACACGCAAAACGCGUGCUCCGUUGAAUGGAGUUUAUCAUG [U53A G88U],≤ -4.2
15,GGAUCUUCUCGAUCUAACAAAAAAGACAAAUCUGCCACAAAGCUUGAGAGCAACUUCGGAUGCAGACGCGGCAGCGUUCGGUGACGCGAUAGCGCCAACGUUCUCAACUAUGAUACGCAAAACGCGUGCUCCGUUGAAUGGAGUUUAUCAUG [U53A G67C C76G G84A C114U],-4.1
16,GGAUCUUCUCGAUCUAACAAAAAAGACAAAUCUGCCACAAAGCUUGAGAGCAACUUCGGAUGCAGAGGCAGCAGCCUUCGGUGGCGCAAUAGCGCUAACGUUCUCAACUAUGACACGCAAAAUGCGUGCUCCGUUGAAUGGAGUUUAUCAUG [U53A G70A G88A C96U C123U],≤ -4.2
17,GGAUCUUCUCGAUCUAACAAAAAAGACAAAUCUGCCACAAAGCUUGAGAGCAACUUCGGAUGCAGAGGCCGCAGCAUUCGGUGGCUCGAUAGCGCCAUCGUUCUCAACUAUGACACGCAAAACGCGUGCUCCGUUGAAUGGAGUUUAUCAUG [U53A G70C C76A G86U A98U],≤ -4.2
18,GGAUCUUCUCGAUCUAACAAAAAAGACAAAUCUGCCACAAAGCUUGAGAGCAACUUCGGAUGCAGAGGCGGCAGCCUUCGCUGGGGCGAUAGCGCCAACGUUCUCAAUUAUGACACGCAAAACGCGUGCUCCGUUGAGUGGAGUUUGUCUUU [U53A G81C C85G C108U A138G A147G A150U G152U],-3.91
19,GGAUCUUCUCGAUCUAACAAAAAAGACAAAUCUGCCACAAAGCUUGAGAGCAACUUCGGAUGCAGAGGCGGCAGCCUUCGGUGGCCCGAUUGCGCCAACGUUCUCAACUAUGACACGCAAAACGCGUGCUCCGUUGAAUGGAGUUUAUCAUG [U53A G86C A91U],≤ -4.2
